Biological target: human Claudin 18.2 (hClaudin18.2) (human) (UniProt P56856)
Test: flow cytometry on CHO cells overexpressing claudin18.2

IMAB362-FC (Fc fusion) was tested. Which EC50 did it give?
The EC50 was 2 µg/mL.

Source: patent US20250270313A1
